Laboratory results taken from article PMC9083094.
“And” between values parts separate entries of the source, which are not always exact repeats. Identical values can stand only once.

Experiments:
[1] = target: Aβ_(C18C33), mutant Aβ42 peptide containing an intramolecular disulfide bond; assay: SDS-PAGE
[2] = target: Aβ_(C18C33), mutant Aβ42 peptide containing an intramolecular disulfide bond; assay: native MS
[3] = target: Aβ_(C18C33), mutant Aβ42 peptide containing an intramolecular disulfide bond; assay: native MS; remark: listed apart in the source
[4] = target: Aβ_(C18C33), mutant Aβ42 peptide containing an intramolecular disulfide bond; assay: native MS; remark: listed apart in the source
[5] = target: Aβ_(C18C33), mutant Aβ42 peptide containing an intramolecular disulfide bond; assay: SDS-PAGE; remark: listed apart in the source
[6] = target: Aβ_(C18C33), mutant Aβ42 peptide containing an intramolecular disulfide bond; assay: SEC-MS
[7] = target: Aβ_(C24C29), mutant Aβ42 peptide with an intramolecular disulfide bond; assay: SDS-PAGE

Substance	stoichiometry N [1]	stoichiometry N [2]	stoichiometry N [3]	stoichiometry N [4]	stoichiometry N [5]	stoichiometry N [6]	stoichiometry N [7]
Aβ_(C18C33), mutant Aβ42 peptide containing an intramolecular disulfide bond	2	4	2 and 4	4	2	2	–
Aβ_(C24C29), mutant Aβ42 peptide with an intramolecular disulfide bond	–	–	–	–	–	–	3 and 4
